Measurements as given in the supplement of paper PMC9170038.

Tested on: MS2 coat protein
Test: apparent KD of MS2 coat protein; designed switch direction (-1 OFF switch, 1 ON switch): -1; higher = weaker reporter binding
Procedure, shortened: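 Each step of the titration lasted 0.8–1.5 h at the lowest concentration and 10–20 min at the highest. The protein, SNAP-549-labelled MS2 coat protein, went from 0.7 or 1.5 nM doubling to 3 µM over RNA switches transcribed on Illumina chips by stalled E. coli RNA polymerase. Normalised cluster fluorescence was curve-fitted, and the per-design median over clusters is given as apparent KD.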

[1] = Eterna round: R95, input ligand: microRNA oligo, concentration not stated
[2] = Eterna round: R95, input ligand: FMN 200 uM
[3] = Eterna round: R95, input ligand: none
[4] = input ligand: microRNA oligo, concentration not stated

Row | Sequence | apparent KD of MS2 coat protein [1] | apparent KD of MS2 coat protein (input ligand: FMN 200 uM) | apparent KD of MS2 coat protein (input ligand: none) | other results
1 | CUGGUGUGAGGAUAUCAAAGACCUCGGUAAAGAACCGAGGAUGAGAAGGCACAUGAGGAUCACCCAUGUAACAA [Lauscege] (puzzle: Exclusion 4) | 22.6 nM | – | – | –
2 | UGUAGAUCUACGCUUGCGUGGAUCUGCUUAGCAAGUGAUACAUGAGGAUCACCCAUGUCCUCAUUUGCUCGUCUUAU [JL turnoff v2 99.01] (puzzle: Sensor v3, turn-off variant 2) | 212 nM | – | – | apparent KD of MS2 coat protein [2]: 15.7 nM; apparent KD of MS2 coat protein [3]: 14 nM
3 | UGAAGGCGAGGAUAUACUGUAUGGGACAUGAGGAUCACCCAUGUUCUGUGUGUACCCGUCGUAGAAGGCGCGAAGA [EX5 C.9] (Eterna round: R97, puzzle: Exclusion 5) | – | 16 nM | 14.5 nM | –
4 | GGGCGUAGGCAGGAUAUGUAAGGCUGUUGGUCUAUAGAAGGGUUUACAUGAGGAUCACCCAUGUGACCGAACCG [Eternabot (L2) Solution 16] (Eterna round: R97, puzzle: Exclusion 6) | – | 18.2 nM | 16.4 nM | –
5 | CGUAGAUUAGGAUAUUGCUCGCUGGACAUGAGGAUCACCCAUGUGCGUGUCGUGCGAAGUCAAGAAGGAGUGUGUG [Eternabot (L2) Solution 40] (Eterna round: R97, puzzle: Exclusion 5) | – | 35.6 nM | 18 nM | –
6 | UUUUAACAUGAGGAUCACCCAUGUGAGGAUAUCGUAUUUUUUAUUAAUAUUAAUAAAACGAGAAGGCACAUUUU [JMF 17] (puzzle: Exclusion 1) | 86.1 nM | – | – | –
7 | UUAAUUAAUUUAAUAUAAGAUCACAUGAGGAUCACCCAUGUAUAGGAUAUCAGCUCGAUUAGAGCUGAGAAGGAUACAUAAUAU [ExNG3/2-B1] (Eterna round: R96, puzzle: Exclusion NG 3) | – | 135 nM | 216 nM | apparent KD of MS2 coat protein [4]: 188 nM
8 | AUUGUAUAGGAAGGAUAUAGAAUAUUAUUUUAACAUGAGGAUCACCCAUGUAACCUUAUGUGUAGCUAGAAGGUCCGUUUAUUA [Title] (Eterna round: R96, puzzle: Exclusion NG 2) | – | – | – | apparent KD of MS2 coat protein [4]: 96.5 nM
9 | AAGAAACAUGAGGAUCACCCAUGUGAGGAUAUGAUAAAGAAAAGAAAAGAAAGAAGAGUCAGAAGGCACAAAGG [salish99-ex1_r3_037] (puzzle: Exclusion 1) | 35.8 nM | – | – | apparent KD of MS2 coat protein [2]: 71.6 nM; apparent KD of MS2 coat protein [3]: 47.4 nM
10 | GCAGCAUAGAUGAAAGUCUGAUACAUGAGGAUCACCCAUGUACAGGAUAUGGUCUGGAUUACAGGCCAGAAGGGUACAAGCUGC [Eli exng3 - 013] (Eterna round: R96, puzzle: Exclusion NG 3) | – | 14.4 nM | 12.8 nM | apparent KD of MS2 coat protein [4]: 10.6 nM
11 | AUAUUUAAGCUUUUGUGAAACAUGAGGAUCACCCAUGUCCUCAUACCUGGACAUUUAAGUCUAGGAGCUCGUCUUAU [Last end dangle 1] (Eterna round: R97, puzzle: Sensor, turn-off variant 1) | – | 518 nM | 558 nM | –
12 | UCGGCGCGAGGAUAUGCGGUUGCUCCCUAGGGUCGGAGCGUACAUGAGGAUCACCCAUGUAGAAGGCGCGCCGC [Apr-15 SS2-34] (puzzle: Exclusion 2) | 12.4 nM | – | – | –
13 | GAUUAACAUGAGGAUCACCCAUGUGAGGAUAUGGACUUGCCCACUUACCCUUUAGAGUCUAGAAGGCGCAUUUC [1986#31] (Eterna round: R97, puzzle: Exclusion 1) | – | 23.1 nM | 20.9 nM | –
14 | AAUUUACAUGAGGAUCACCCAUGUCAGGAUAUGGUUUUAUUUUUUUCUUUUCUUGAUUCCAGAAGGGACAGCUA (puzzle: Exclusion 1) | 82.2 nM | – | – | –
15 | UGUGUGUGAGGAUAUACAAUUGUGUGUGGAAACGCGCGCGUACAUGAGGAUCACCCAUGUAGAAGGCGCGCGCG [-30.7, -27.4 kcal A 24%, 6bis,6bis] (Eterna round: R97, puzzle: Exclusion 2) | – | 18.4 nM | 17.9 nM | –
16 | GCCGCGCGAGGAUAUACAUGAGGAUCACCCAUGUGAAAUUAUAGUGAGGAAAUGAAAAGUAGAAGGCGCGCGGA [Mod of Mat 19 - Jieux - Exclusion 3] (Eterna round: R97, puzzle: Exclusion 3) | – | 258 nM | 37 nM | –
17 | CCGGUAUAGGAGGAUAUAGGAGUCGAUAGACACCUAGAAGGCCUGACAUGAGGAUCACCCAUGUGUCCUACCGG [Fiskers Ex 6 - 96] (puzzle: Exclusion 6) | 15.9 nM | – | – | –
18 | CCUAGUUGGUAAGGAUAUCCUACACUAUUCUGACCCGUGCAAGCUACAUGAGGAUCACCCAUGUGGGAGAAGGUGCGUUAACGU [Design 9] (Eterna round: R96, puzzle: Exclusion NG 2) | – | 31.2 nM | 26.7 nM | apparent KD of MS2 coat protein [4]: 23.4 nM

Row | Sequence | apparent KD of MS2 coat protein [1] | apparent KD of MS2 coat protein (input ligand: FMN 200 uM) | apparent KD of MS2 coat protein (input ligand: none) | other results
19 | UCAUGUUUAGAGGAUAUGAUUACUCUAGAGUGAUCAGAAGGCUAGACAUGAGGAUCACCCAUGUCAGAACAUGC [Exclusion 6 - B - 17:b] (puzzle: Exclusion 6) | 24.7 nM | – | – | apparent KD of MS2 coat protein [2]: 17.7 nM; apparent KD of MS2 coat protein [3]: 31.9 nM
20 | CCGCAAAAGCAGGAUAUCGUAUCGGAUACGAUACGAGAAGGGCUAACAUGAGGAUCACCCAUGUGUCCUAGCGG [Fiskers Ex 6 - 38] (puzzle: Exclusion 6) | 15.4 nM | – | – | –
21 | GUAUGUUAUGAGGAUAUCGGUGAACAUACACAUCGAGAAGGCAUGACAUGAGGAUCACCCAUGUCGAGGAUGAA [Exclusion 6 - B - 18:e] (puzzle: Exclusion 6) | 18 nM | – | – | apparent KD of MS2 coat protein [2]: 47.2 nM; apparent KD of MS2 coat protein [3]: 23.7 nM
22 | CUUUUGUGAGGAUAUCAGUAGUAAUACAAUAGUAUUACUGCUGAGAAGGCACAUGAGGAUCACCCAUGUUCCUC [Ex4 344 Omei mod 10] (puzzle: Exclusion 4) | 53.6 nM | – | – | –
23 | UUUACAAGCUAAUGAUCCCACAUGAGGAUCACCCAUGUUGCUGCCGUGAGGUAGCUUUUAACAUUUGCUCGUCUUAU [JL TOV1 3.40] (Eterna round: R97, puzzle: Sensor, turn-off variant 1) | – | 733 nM | 1060 nM | –
24 | AGCUGUGGCCGAGGAUAUACAUGAGGAUCACCCAUGUUACAUAAUUAAGCCGGAGAACCGGCUCCGUAGAAGGCGGUCUCAGCA [Eli eng2 - 003] (Eterna round: R96, puzzle: Exclusion NG 2) | – | 12.6 nM | 13.7 nM | apparent KD of MS2 coat protein [4]: 9.39 nM
25 | AAUUUACAUGAGGAUCACCCAUGUGAGGAUAUAUGCAAAUAAUUUUUAUUAAUAAAGCAUAGAAGGCGCGUGAU [JR_Exc1_Sub042] (Eterna round: R97, puzzle: Exclusion 1) | – | 188 nM | 73 nM | –
26 | GUUAGACAUGAGGAUCACCCAUGUGAGGAUAUGAUGCGAAUAAAGAAUGAAGUAAGCAUCAGAAGGCACAUAUG [Mat - Mod of Hyphema D30] (puzzle: Exclusion 1) | 235 nM | – | – | –
27 | GGUUAGACGGUAGGAUAUCCAUAUCGAGUGACCCUUUCAUAACAUGAGGAUCACCCAUGUCGGUGGGAGAAGGGCCGUACGGCG [salish99_ExNG02_R04_009] (Eterna round: R96, puzzle: Exclusion NG 2) | – | 50.9 nM | 42.2 nM | apparent KD of MS2 coat protein [4]: 33.5 nM
28 | UAUUAGCAAGCAACUGGGUACAUGAGGAUCACCCAUGUGCUCGUCUUAUAAGGUACUGUGACGAAAGUCACGGUACC [mod--Eli] (Eterna round: R97, puzzle: Sensor, turn-off variant 1) | – | 17.4 nM | 16.6 nM | –
29 | AUAAUGUAAGGAUAUCAGUCGACUAGCUGCGGCUAGUCGACUGAGAAGGUACAUGAGGAUCACCCAUGUGGUUC [E4/11-A3] (Eterna round: R97, puzzle: Exclusion 4) | – | 185 nM | 304 nM | –
30 | AGAUGUAGAUACCGAUCCUACAUGAGGAUCACCCAUGUAGCUAGACGUGCGCGCGGCGCUCGUCAGACUACCAGUAG [salish99_TOv1_r3_093] (puzzle: Sensor v3, turn-off variant 1) | 248 nM | – | – | apparent KD of MS2 coat protein [2]: 328 nM; apparent KD of MS2 coat protein [3]: 326 nM
31 | AAGAAACAUGAGGAUCACCCAUGUGAGGAUAUGGCCCGCCCGGCGUGAGCUGGUUUAAUCAGAAGGCACAAAGG [salish99_ex1_r4_014] (Eterna round: R97, puzzle: Exclusion 1) | – | 44.8 nM | 38.1 nM | –
32 | UGAUUGUUUACCAGGUUAUACAUGAGGAUCACCCAUGUAGAUCCUACGUGCACGUUAUACCGCUCGUCUUAUUCCCA [Sensor-V1 #76] (Eterna round: R97, puzzle: Sensor, turn-off variant 1) | – | 21.4 nM | 20.7 nM | –
33 | UUAGAAUUGUUAGGAUAUUAAUUAUUGUAUAGUAUGAUCUACAUGAGGAUCACCCAUGUUAAAUAUAAGAAGGAACGUUAGAUU [JR_ExcNG2_Sub094] (Eterna round: R96, puzzle: Exclusion NG 2) | – | – | – | apparent KD of MS2 coat protein [4]: 42.3 nM
34 | CUGCUCCGUGUAGGAUAUCCGGGCAACCAAUCCGGAGAAGGACAUGAGGAUCACCCAUGUAUGUUAUUAUCACGUGAAGCGUCC [Design 25] (Eterna round: R96, puzzle: Exclusion NG 1) | – | – | – | apparent KD of MS2 coat protein [4]: 15.6 nM
35 | AUGGUAUUAGGAUAUACAUGAGGAUCACCCAUGUGGCAUCAUGCGGUGCCGACCUACUGUAGAAGGAGUGUAAA [Eternabot (L1) Solution 64] (Eterna round: R97, puzzle: Exclusion 3) | – | 51.3 nM | 59 nM | –
36 | UGAUCCGGUGUGAGGAUAUUUAACCUCAUAUAGGUAAAGAAGGCACAUGAGGAUCACCCAUGUCGAGGCCCGAU [Eternabot (L2) Solution 74] (Eterna round: R97, puzzle: Brourd's mod of Exclusion 4) | – | 209 nM | 168 nM | –
